Results reported in the DeepSol protein solubility set.

Test: soluble on expression in E. coli; label from the status in PepcDB or PDB records

With “MGSDKIHHHHHHMNKYLNNINASYCCGCSACVHKCPKQCLRMSQDKDGFFFPIVNNREACIDCSLCAKVCPMENMVESDYPHTFYGAYNTNKTDIVNSSSGGIYPSLAKWIISQGGIVFGASLDDEHKLYHIGVSTESDIQKTIGSKYFQSEIRDTYVECKKELDKGRLVLYTGTPCQVHGLKRYLGKDYDNLYTADVICHGVPSSKMFDAYIDFLEKKHNGKLVDINFRDKKRNGWSITLRYTIEYSNDKRKDYYLINKLSEYFMAFLGGYIERESCYSCPFSSMRRPGDITMGDFWGYQFKRPDLKHDEGLSLIIVNSEHGKRIVDVLHRNGVQFNAVDEECVKASENKNLYKPTLRPEVRSVVYDELQNFGFEYIAKKYFRRTQTLRNKAKNYMPVALVNIIKKLK” as the sequence, how does the “soluble on expression in E. coli” value read?
Its value is “not soluble”.

Which “soluble on expression in E. coli” value does the source give for “MSLHRLQKVVRHIAQTEIMPRFLNTPSRRKEDGSMLSEADIAAQTAFAAALPLLIDCPMLGEEMSRQEQSALWEQYSGEKGLWIVDPIDGTNNFVNGLPHFAVSVAFVRNGRAELGVIYNPVSGECFYAERGQGAFLNGTRLPLRLVDKKLNEAIAGVEIKYLRSGKLSSRMSTLAPFGTIRSMGSSTLDWCYLACGRYDVYVHGGQKLWDYAAGALIFEEAGGRLTTLEGDGFWSGEHVFKRSVVAALEPKLFERWVGWIRENQEGHHHHHH” here?
Its value is “soluble”.

With “MGSDKIHHHHHHACKNKTGGPATASSELTDDALMDTVQRRTFLYFWEGAEPNSGLAPERYHVDGVYPQNDANVVTSGGSGFGIMAILAGIDRGYVTREEGLARMERIVSFLEKADRFHGAYPHWWYGDTGKVKPFGQKDNGGDLVETAFLMQGLLAVHQYYINGNEKEKALAARIDQIWKDVDWNWYRNGDQNVLYWHWSPTYGWEMDFPIHGYNECMIMYILAAASPTHGVPAAVYHDGWAQNGAIVSPHKVEGIELHLRYQGTEAGPLFWAQYSFLGLDPVGLKDEYCPSYFHEMRNLTLVNRAYCIRNPKHYKGFGPDCWGLTASYSVDGYAAHSPNEQDDKGVISPTAALSSIVYTPEYSMQVMRHLYNMGDTVFGPFGFYDAFSETDNWYPQRYLAIDQGPIAVMIENYRTGLLWKLFMSHPDVQAGLTKLGFNTNKQDVRQK” as the sequence, how does the “soluble on expression in E. coli” value read?
The value was “not soluble”.

With “CYVDTNNDGAYEGDELHMGSLTVKAYLLGKEEAAREIRRFSFCFSPEPEAEAAAGPGPSERLLSRVAVLFPALRPGGFQAHYRAERGDLVAFSSDEELTMAMSYVKDDIFRIYIKEK” as the sequence, how does the “soluble on expression in E. coli” value read?
Its value is “soluble”.

With “MMKSIILIVLDGLGDRPGSDLQNRTPLQAAFRPNLNWLASHGINGIMHPISPGIRCGSDTSHMSLLGYDPKVYYPGRGPFEALGLGMDIRPGDLAFRANFATNRDGVIVDRRAGRENKGNEELADAISLDMGEYSFRVKSGVEHRAALVVSGPDLSDMIGDSDPHREGLPPEKIRPTDPSGDRTAEVMNAYLEEARRILSDHRVNKERVKNGRLPGNELLVRSAGKVPAIPSFTEKNRMKGACVVGSPWLKGLCRLLRMDVFDVPGATGTVGSNYRGKIEKAVDLTSSHDFVLVNIKATDVAGHDGNYPLKRDVIEDIDRAMEPLKSIGDHAVICVTGDHSTPCSFKDHSGDPVPIVFYTDGVMNDGVHLFDELSSASGSLRITSYNVMDILMQLAGRSDKFGSLEHHHHHH” as the sequence, how does the “soluble on expression in E. coli” value read?
The value was “soluble”.

Which “soluble on expression in E. coli” value does the source give for “MAQRVQLTATVSENQLGQRLDQALAEMFPDYSRSRIKEWILDQRVLVNGKVCDKPKEKVLGGEQVAINAEIEEEARFEPQDIPLDIVYEDEDIIIINKPRDLVVHPGAGNPDGTVLNALLHYYPPIADVPRAGIVHRLDKDTTGLMVVAKTVPAQTRLVESLQRREITREYEAVAIGHMTAGGTVDEPISRHPTKRTHMAVHPMGKPAVTHYRIMEHFRVHTRLRLRLETGRTHQIRVHMAHITHPLVGDPVYGGRPRPPKGASEAFISTLRKFDRQALHATMLRLYHPISGIEMEWHAPIPQDMVELIEVMRADFEEHKDEVDWL” here?
The value was “soluble”.

Which “soluble on expression in E. coli” value does the source give for “MSLEKSYWEQAHLQLPLKYTWKISRNASTEKINVIVFLCIDGRTYPGEAAPNVRYGESVELIDLQFKHFQTVWKDSLLQDEHAYNDVLDGLKLCQSLRFALESAYVHARCDKDPAFFERYTGIKMHTSPLATSYTLPIMDPGQIQEFIQTHDLTRFDTLKIKTGKEESKELIKTASRYFDKMIRVDANEAWTDPDLLIKELEELKRIPLEFIEQPFESAQKDAYKYFKKYSKIPVIADESITFAPDLKEIKELFHGVNMKLMKAGGYREGANILLKSKELGLKTMVGCMVETTLGIRSGMWISGHSDYIDLDGSFVIDNEPFKLVSENLGRLVIKQVNFFIEKWQKEGHHHHHH” here?
Its value is “soluble”.

Which “soluble on expression in E. coli” value does the source give for “MGSDKIHHHHHHMSQAKATFSTEHDLNTSEQQAFWQSVVQDTLITADGITLAYMMVKHPQAHTAIVLSSGRVESYLKYQELVFDLYQQGYSVYAIDHRGQGLSDRMTINPHMGHVRRFNDYIDDFALFMQKKVLPQNDKQLMLLGHSMGGAIGTLYLKQHPDIFTAAAFSAPMYGIKLPMPKAFVRWLASKLDTTLNGGEPNYVLGGQNYKPVPFKGNELTHCQSRYQAYRDLYDAAPKLQLGSPTNRWLTESLDAADTCVLATAQIRTPILILQASEDKIVDNAAQNLAVSTHCQLKVIAGAAHEIFMEKDAYRNQALNYALDFFKRFAIKDEDKQAG” here?
The value was “not soluble”.

For “MMDSCIRIAGIIGESIVDGPGIRLVVFAQGCPHHCPGCHNPETHAYEGGKSVAIAEILQRLAMNPLLDGITLSGGEPFAQAAGFALLAQSARQRGFHVMTYSGYTYEELTASSEQNPAWALLLEQTDLLVDGPFQLAERNLLLPFRGSENQRVIDVQESLRQGKVVLASVLEHHHHHH”, which “soluble on expression in E. coli” value is on record?
The value was “not soluble”.

For “MTNKISSSDNLSNAVSATDDNASRTPNLNRRALVGGGVGLAARGALASGLQAATLPAGASQVPTTPAGRPMPYAIRPMPEDRRFGYAIVGLGKYALNQILPGFAGCQHSRIEALVSGNAEKAKIVAAEYGVDPRKIYDYSNFDKIAKDPKIDAVYIILPNSLHAEFAIRAFKAGKHVMCEKPMATSVADCQRMIDAAKAANKKLMIGYRCHYDPMNRAAVKLIRENQLGKLGMVTTDNSDVMDQNDPAQQWRLRRELAGGGSLMDIGIYGLNGTRYLLGEEPIEVRAYTYSDPNDERFVEVEDRIIWQMRFRSGALSHGASSYSTTTTSRFSVQGDKAVLLMDPATGYYQNLISVQTPGHANQSMMPQFIMPANNQFSAQLDHLAEAVINNKPVRSPGEEGMQDVRLIQAIYEAARTGRPVNTDWGYVRQGGY”, which “soluble on expression in E. coli” value is on record?
The value was “soluble”.

For “MMIEPKEKASIGIIGGSGLYDPQILTNVKEIKVYTPYGEPSDNIILGELEGRKVAFLPRHGRGHRIPPHKINYRANIWALKSLGVKWVIAVSAVGSLRLDYKPGDFVVPNQFIDMTKGRTYTFFDGPTVAHVSMADPFCEHLRSIILDSAKDLGITTHDKGTYICIEGPRFSTRAESIVWKEVFKADIIGMTLVPEVNLACEAEMCYSVIGMVTDYDVFADIPVTAEEVTKVMAENTAKVKKLLYEVIRRLPEKPDERKCSCCQALKTALVLEHHHHHHHH”, which “soluble on expression in E. coli” value is on record?
The value was “soluble”.

With “MGSDKIHHHHHHMRGEVKKIIEAIGDIFIGHEDVIRKVLAVALVNGNILFEDYPGLGKTLLAKAFAKILGLKFKRIQFTPDLLPADIIGTKVWKPEKGAFEVVKGPIFTNILLADEINRAPPKTQSALLEAMEERQVTIEGETFKLERPFFIIATQNPLELEGTYPLPEAQLDRFLVRLNIGYPRNEEDELEILKARLRWGKDDPTSDISPIISREDFIRMQEEVERGVIIHDDILRYIVRLVRRIREDERIEAGPSPRGGLALMKLAKANAFIEGRSYVIPDDVKYFAVEALAHRIVLKPEYSLERGIAEEIIREVLEEVPVPKDIRY” as the sequence, how does the “soluble on expression in E. coli” value read?
The value was “not soluble”.

For “MGSDKIHHHHHHMNKKSSLNNLLYIQEHRSCRNYLEKVENGFKYIEFSHEEVILEKEISWNYLLFVLEGECIINCNQFRERLFQANCMVLLPKTAMVEIKVIAGTRLLSLSFDVPLNVCDKFILQSLTGLCRKLDYNFQSLAIRYPLPPYLEIVTYCLTNKMDCGHFHTLLQQELFFLLRGFYLKEELALLFHPIISAELTFKDFVIGNYFKVSNVNDLISLSNMCKSSFYCKFKEVFGMTAKQWLLKQRNTHILNKVMTSETTVGELMEEFRFESQAHFTHYCKQHFNCTPRELIMKYQVVNQ”, which “soluble on expression in E. coli” value is on record?
The value was “not soluble”.

For “MSEAAIAKKETLVQAAAEKFESAASVVIVDYRGLTVEEVTNLRKQLRDAGVEMKVIKNSILSRAAKKVGLDGLDEVFTGPTAVAFSNDDVVAPAKIIDEFAKDAKALEIKGGVIEGKVSSVEQITALAKLPNREGLLSMLLSVLQAPVRNVAYAVKAVAEKNEEVA”, which “soluble on expression in E. coli” value is on record?
Its value is “not soluble”.

For “MRNWKVTGKYPQLDGTGAVASTHIIIAAEDGAVIPQLIKQDLTSTNDTEIIKAALEEFKKSEYVEIAMGEAVQKVDDLEKISQETAKTAKTAQTAAGLAKVSAERTQRMINLQTIHVLTSGGNVEPDIYKGMLELIEPAKQGEYQAYDVFTVVDESHEDQAVEGNLVFVHVNEPFTYEAQTLKDLESEDKVTVIKYADLVKQD”, which “soluble on expression in E. coli” value is on record?
Its value is “not soluble”.

With “MFMGKLPHQADLIGALIEAAGANGIRAGAIQVIGALQGAKLGFYDQWSKSYRELPFAKPLEIVSGLGNISLRDGRPFVHLHLSISDEEGKVFGGHALEGCTIFAAEYAIMPLPGSAPVRVFDETTGLFLWEREQYPASGQKGLSPELERALLNPLEHHHHHH” as the sequence, how does the “soluble on expression in E. coli” value read?
The value was “soluble”.

For “HVEQSNKDELLLEEITSWLEKNTDGKIVVFCGDKTVADNVYKFIEQNLPSVERHIDGKLPGFNISPQYNVLICDQSGEDGLNLQGKCRLAIHYSLPRTVMRIEQRIGRLNRYSASSIGVLPV”, which “soluble on expression in E. coli” value is on record?
The value was “not soluble”.

Which “soluble on expression in E. coli” value does the source give for “MASLYLGLGFLVSMHSTKPEKADIIVILGGDDGLRVSKGGDLYKAGYAKHVLLTGIDSRYYRPNHPNWRERKLMARGVPRKHIIVDTWSETSWEEAENTSDLMDKNGWKSALVVSDPPHMLRLNKTWKKAFAGTNKRFRLVATEPSWWNPLLWWRNPISYRFVINELKKNIYYLVTYYLEHHHHHH” here?
Its value is “not soluble”.

For “ATDATSLATDKDKLSYSIGADLGKNFKNQGIDVNPEAMAKGMQDAMSGAQLALTEQQMKDVLNKFQKDLMAKRTAEFNKKADENKVKGEAFLTENKNKPGVVVLPSGLQYKVINSGNGVKPGKSDTVTVEYTGRLIDGTVFDSTEKTGKPATFQVSQVIPGWTEALQLMPAGSTWEIYVPSGLAYGPRSVGGPIGPNETLIFKIHLISVKKSS”, which “soluble on expression in E. coli” value is on record?
The value was “soluble”.

Which “soluble on expression in E. coli” value does the source give for “MPAIFTHEGKVEGVPGNYPLTAENLFRIGLALCTLWILDKEIEEPTLSIPETNFVTLALSVGFMNAGGSVNVGKGGDIKLFLQKGEIYVLEFQPLSETDIKKLESILFGRAPIPKKTGEDIGSFKC” here?
Its value is “soluble”.

For “MGSDKIHHHHHHMSDKHYDALPKAHTTYANIVKSLLPIGNNGKISRDELPQATYFVDDLHIDQNNLNDYRKICGFADNGNVPITYFSVLSQALQMNMMVKEPFPFAMLGLVHVDNSVTQYRAIGEIETVAMSVMFDNLRDHAQGQQFDFVTTVKSADEIIWEGTSTYLSRSKKPATSKDKKSTPRPVTVKPSINKEGVHSIFEVPEDIGRRYAFVSGDFNLIHLHPLSARAFGFPKAIAHGMWSKAKCLAMMGELPDACTVEVSFKLPIFLPSEVELITDPLAQLSSTEDTCQFGLFSAKNDKPHLAGVIALRDENK”, which “soluble on expression in E. coli” value is on record?
The value was “not soluble”.

For “METMTELNTKEMKLDALLKDMQSVVIAFSGGVDSSLLLKKAIDILGVNYVKPVVVKSELFRNEEFELALKLGQSLGVEVLETEMSELQDANIVKNTPESWYYSKRLMYSQLENIKNKLGFNYVLDGMIMDDLDDFRPGLKARDDFGVRSVLQEAKLYKSEVRELSHQHDLPVWNKPALCSLASRIPYGEELSFTKVNKVNEAEKFILSLGINHVRVRYHHNIARIEVTEDQLNNLLKLKDSIILHLKELGFDYVTMDLEGYRTGSMNEIIDTKSTSFK”, which “soluble on expression in E. coli” value is on record?
Its value is “not soluble”.
